Patent US6352972

Target: collagen (collagen-coated wells, source not stated)
Experiment: cell-based or functional assay

- proliferation of 3T3 cells: 15 fold
Substance: human platelet-derived TGFβ1 (commercial) (from UniProt P01137 279-390) (ligand)
